According to the supplement of paper PMC10065799, “High-throughput profiling of sequence recognition by tyrosine kinases and SH2 domains using bacterial peptide display” (eLife, 2023):

Columns and labels:
EPHB1 = EPHB1 (UniProt P54762); test: phosphorylation enrichment, bacterial display (enrichment ratio); higher = better substrate or ligand; peptides without Tyr show the background
Fes = Fes (UniProt P07332); test: as above
Fyn = Fyn (UniProt P06241); test: as above
Hck = Hck (UniProt P08631); test: as above
EPHB2 = EPHB2 (UniProt P29323); test: as above
c-Src = test: as above
MERTK = MERTK (UniProt Q12866); test: as above
FGFR3 = FGFR3 (UniProt P22607); test: as above
Jak2 = Jak2 (UniProt O60674); test: as above
Fer (mouse) = test: as above
AncSZ = test: as above
c-Abl (mouse) = test: as above
FGFR1 = FGFR1 (UniProt P11362); test: as above
Grb2 SH2 = Grb2 SH2 (UniProt P62993); test: SH2 binding enrichment of the phosphorylated peptide, bacterial display (enrichment ratio); higher = better substrate or ligand; peptides without Tyr show the background
SHP2-C SH2 = test: as above
c-Src SH2 = test: as above
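Wherever SH2 binding enrichment of the phosphorylated peptide, bacterial display is given: peptide library displayed on the E. coli surface as eCPX fusions, selected cells deep-sequenced, score is each peptide's frequency after selection divided by its frequency in the input.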
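Wherever phosphorylation enrichment, bacterial display is given: 11-residue human phosphosite peptides and single-mutation variants displayed on the E. coli surface, counted by deep sequencing, each peptide's frequency after selection divided by its frequency in the unselected input library; frequency after pTyr selection over input frequency; kinase dosed for 20-30% of maximal phosphorylation in three min.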

Fes, sequence (P07332 whole entry, looked up): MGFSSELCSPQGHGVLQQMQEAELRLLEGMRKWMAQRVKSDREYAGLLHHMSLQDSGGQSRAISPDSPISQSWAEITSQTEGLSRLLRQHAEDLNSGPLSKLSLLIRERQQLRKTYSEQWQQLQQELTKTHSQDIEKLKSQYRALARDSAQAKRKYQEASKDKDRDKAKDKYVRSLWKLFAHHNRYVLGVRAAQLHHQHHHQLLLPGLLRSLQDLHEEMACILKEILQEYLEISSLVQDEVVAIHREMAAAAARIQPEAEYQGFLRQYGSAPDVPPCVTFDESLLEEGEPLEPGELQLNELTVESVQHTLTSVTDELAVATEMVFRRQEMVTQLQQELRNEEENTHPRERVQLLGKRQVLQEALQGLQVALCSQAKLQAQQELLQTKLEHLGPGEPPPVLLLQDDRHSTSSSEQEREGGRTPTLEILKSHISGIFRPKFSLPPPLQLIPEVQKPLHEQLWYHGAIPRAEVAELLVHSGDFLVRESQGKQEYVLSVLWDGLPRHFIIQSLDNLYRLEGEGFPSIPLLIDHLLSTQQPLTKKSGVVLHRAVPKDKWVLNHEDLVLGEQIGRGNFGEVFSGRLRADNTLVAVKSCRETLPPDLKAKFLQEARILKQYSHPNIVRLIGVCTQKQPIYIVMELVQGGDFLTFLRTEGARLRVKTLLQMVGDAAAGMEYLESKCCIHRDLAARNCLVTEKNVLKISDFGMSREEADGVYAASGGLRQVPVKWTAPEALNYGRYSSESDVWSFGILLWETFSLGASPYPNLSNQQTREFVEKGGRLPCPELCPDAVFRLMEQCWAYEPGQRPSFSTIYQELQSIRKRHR
Hck, sequence (P08631 whole entry, looked up): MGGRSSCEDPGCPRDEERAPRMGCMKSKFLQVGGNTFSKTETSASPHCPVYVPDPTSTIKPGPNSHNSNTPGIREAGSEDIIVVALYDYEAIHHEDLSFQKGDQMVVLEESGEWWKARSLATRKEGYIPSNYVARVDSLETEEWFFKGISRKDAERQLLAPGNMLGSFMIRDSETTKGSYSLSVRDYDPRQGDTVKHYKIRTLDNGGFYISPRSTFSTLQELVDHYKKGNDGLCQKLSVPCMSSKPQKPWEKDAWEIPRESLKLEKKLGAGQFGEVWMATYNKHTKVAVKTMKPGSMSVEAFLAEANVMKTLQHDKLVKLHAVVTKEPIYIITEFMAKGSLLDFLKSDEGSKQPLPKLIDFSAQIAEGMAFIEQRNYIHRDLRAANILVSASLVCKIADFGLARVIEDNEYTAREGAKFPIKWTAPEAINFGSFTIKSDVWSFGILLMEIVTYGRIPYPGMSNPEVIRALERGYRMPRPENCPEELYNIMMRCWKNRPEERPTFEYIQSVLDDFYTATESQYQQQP
FGFR1, sequence (P11362 whole entry, looked up): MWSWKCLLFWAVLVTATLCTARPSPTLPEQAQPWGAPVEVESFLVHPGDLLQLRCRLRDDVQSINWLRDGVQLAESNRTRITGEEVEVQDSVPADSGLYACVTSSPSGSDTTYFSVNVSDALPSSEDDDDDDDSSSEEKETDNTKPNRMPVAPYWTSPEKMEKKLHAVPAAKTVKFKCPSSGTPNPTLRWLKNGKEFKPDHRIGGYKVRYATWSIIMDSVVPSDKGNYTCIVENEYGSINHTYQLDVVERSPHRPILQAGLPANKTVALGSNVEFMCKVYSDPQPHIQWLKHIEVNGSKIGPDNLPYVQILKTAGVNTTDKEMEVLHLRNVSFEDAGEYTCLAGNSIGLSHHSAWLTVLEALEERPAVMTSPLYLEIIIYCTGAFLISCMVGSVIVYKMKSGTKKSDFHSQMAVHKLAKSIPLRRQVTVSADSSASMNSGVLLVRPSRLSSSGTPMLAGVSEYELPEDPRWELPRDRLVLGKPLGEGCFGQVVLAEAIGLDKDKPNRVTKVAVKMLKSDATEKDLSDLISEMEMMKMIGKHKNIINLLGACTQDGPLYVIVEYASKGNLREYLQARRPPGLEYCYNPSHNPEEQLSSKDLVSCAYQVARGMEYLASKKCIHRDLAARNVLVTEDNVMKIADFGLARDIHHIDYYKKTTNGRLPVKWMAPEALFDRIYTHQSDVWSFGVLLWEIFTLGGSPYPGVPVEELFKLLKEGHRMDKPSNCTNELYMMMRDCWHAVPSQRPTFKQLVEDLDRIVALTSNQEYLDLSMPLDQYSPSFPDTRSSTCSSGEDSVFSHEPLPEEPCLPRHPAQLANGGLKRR
FGFR3, sequence (P22607 whole entry, looked up): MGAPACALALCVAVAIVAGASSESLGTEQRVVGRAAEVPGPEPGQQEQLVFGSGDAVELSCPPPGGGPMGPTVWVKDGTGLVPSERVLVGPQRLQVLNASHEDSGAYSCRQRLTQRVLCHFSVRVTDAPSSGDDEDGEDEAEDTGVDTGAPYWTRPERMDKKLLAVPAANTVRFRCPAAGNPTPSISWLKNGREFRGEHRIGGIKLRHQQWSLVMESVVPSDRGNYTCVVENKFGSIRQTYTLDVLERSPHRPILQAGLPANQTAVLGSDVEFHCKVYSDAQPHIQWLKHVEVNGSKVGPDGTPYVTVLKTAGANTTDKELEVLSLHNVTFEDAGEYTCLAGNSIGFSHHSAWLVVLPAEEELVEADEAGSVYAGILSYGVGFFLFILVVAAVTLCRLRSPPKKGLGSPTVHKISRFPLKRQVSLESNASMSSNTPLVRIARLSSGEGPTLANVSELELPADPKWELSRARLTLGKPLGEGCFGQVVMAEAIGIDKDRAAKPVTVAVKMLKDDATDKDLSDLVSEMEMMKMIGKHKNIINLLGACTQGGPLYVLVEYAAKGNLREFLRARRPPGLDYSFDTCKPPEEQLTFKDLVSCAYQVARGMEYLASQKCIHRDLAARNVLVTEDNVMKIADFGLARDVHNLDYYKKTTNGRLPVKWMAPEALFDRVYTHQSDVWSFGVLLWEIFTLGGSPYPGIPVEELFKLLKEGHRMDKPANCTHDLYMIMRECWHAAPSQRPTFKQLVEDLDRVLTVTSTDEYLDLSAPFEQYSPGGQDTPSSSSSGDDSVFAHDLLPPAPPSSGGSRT
Jak2, sequence (O60674 whole entry, looked up): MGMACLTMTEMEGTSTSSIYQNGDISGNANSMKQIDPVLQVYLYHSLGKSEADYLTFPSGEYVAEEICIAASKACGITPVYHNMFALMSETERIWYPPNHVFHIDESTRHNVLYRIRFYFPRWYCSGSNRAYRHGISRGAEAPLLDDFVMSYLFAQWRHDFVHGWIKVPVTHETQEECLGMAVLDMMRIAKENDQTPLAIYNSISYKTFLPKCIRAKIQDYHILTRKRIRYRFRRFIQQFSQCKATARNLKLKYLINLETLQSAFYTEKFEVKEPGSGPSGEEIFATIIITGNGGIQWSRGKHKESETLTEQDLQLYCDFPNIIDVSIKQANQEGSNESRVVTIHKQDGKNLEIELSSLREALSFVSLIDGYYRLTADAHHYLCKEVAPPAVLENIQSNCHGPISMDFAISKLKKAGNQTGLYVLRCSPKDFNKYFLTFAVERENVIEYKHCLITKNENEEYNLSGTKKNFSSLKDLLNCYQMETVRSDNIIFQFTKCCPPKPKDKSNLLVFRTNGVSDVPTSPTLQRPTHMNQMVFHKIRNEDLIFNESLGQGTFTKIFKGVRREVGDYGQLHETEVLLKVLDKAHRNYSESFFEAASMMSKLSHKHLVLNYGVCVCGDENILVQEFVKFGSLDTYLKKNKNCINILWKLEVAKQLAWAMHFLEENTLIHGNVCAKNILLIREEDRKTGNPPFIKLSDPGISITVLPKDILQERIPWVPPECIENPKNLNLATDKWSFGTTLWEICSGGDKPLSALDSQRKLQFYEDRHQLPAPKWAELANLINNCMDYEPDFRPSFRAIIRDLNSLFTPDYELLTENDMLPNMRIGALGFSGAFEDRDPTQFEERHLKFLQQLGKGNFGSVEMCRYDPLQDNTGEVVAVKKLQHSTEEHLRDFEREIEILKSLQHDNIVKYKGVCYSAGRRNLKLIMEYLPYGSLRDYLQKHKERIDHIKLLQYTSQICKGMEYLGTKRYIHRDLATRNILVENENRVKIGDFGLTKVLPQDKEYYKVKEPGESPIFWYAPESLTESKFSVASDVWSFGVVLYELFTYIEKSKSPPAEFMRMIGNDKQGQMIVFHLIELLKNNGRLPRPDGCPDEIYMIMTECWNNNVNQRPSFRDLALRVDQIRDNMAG
Grb2 SH2, sequence (P62993 whole entry, looked up): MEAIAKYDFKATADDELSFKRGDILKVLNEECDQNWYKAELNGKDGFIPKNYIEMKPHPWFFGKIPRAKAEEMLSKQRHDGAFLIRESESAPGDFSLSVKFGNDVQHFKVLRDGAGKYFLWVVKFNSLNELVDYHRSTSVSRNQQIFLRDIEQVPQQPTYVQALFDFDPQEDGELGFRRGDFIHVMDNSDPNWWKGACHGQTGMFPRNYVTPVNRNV
Fyn, sequence (P06241 whole entry, looked up): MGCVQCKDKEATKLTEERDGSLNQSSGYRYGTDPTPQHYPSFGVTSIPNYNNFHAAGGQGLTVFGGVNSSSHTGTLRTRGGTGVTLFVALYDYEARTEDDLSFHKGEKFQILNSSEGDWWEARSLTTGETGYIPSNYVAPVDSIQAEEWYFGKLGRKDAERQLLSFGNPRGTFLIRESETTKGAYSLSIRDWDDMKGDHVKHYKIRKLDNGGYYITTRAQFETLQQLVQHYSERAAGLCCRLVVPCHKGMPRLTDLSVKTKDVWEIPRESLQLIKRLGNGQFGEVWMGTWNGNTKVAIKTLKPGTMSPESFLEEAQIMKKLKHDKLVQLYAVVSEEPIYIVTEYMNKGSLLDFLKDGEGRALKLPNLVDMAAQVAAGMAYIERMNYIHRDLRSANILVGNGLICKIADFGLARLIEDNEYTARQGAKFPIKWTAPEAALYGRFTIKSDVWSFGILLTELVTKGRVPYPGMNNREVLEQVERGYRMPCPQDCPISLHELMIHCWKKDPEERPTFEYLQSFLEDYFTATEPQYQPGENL

Sequence | phosphorylation enrichment (EPHB1) | phosphorylation enrichment (Fes) | phosphorylation enrichment (Fyn) | phosphorylation enrichment (Hck) | phosphorylation enrichment (EPHB2) | phosphorylation enrichment (c-Src) | phosphorylation enrichment (MERTK) | phosphorylation enrichment (FGFR3) | phosphorylation enrichment (Jak2) | phosphorylation enrichment (Fer (mouse)) | phosphorylation enrichment (AncSZ) | phosphorylation enrichment (c-Abl (mouse)) | phosphorylation enrichment (FGFR1) | SH2 binding enrichment (Grb2 SH2) | SH2 binding enrichment (SHP2-C SH2) | SH2 binding enrichment (c-Src SH2)
WNRDKYAATTT [TRIM39_Y439_G436R] | 0.448 | 0.59 | 0.358 | 0.375 | 0.401 | 0.411 | 0.471 | 0.34 | 0.65 | 0.37 | 0.734 | 0.542 | 0.439 | 0.772 | 0.798 | 0.498
PVFIKYLPEWT [PSEN1_Y240_L235P] | 0.64 | 1.68 | 0.447 | 0.519 | 0.715 | 0.626 | 0.475 | 1.04 | 1.62 | 0.759 | 1.45 | 1.07 | 0.515 | 1.28 | 0.884 | 0.606
ALVDTYCRHNY [HLA-DRB1_Y107_A103L] | 0.439 | 0.709 | 0.46 | 0.549 | 0.486 | 0.432 | 0.618 | 0.501 | 0.456 | 0.442 | 0.474 | 0.515 | 0.401 | 0.911 | 0.79 | 0.582
CEHRGFLYLAI [TEK_Y897_Y897F] | 0.464 | 1.16 | 0.372 | 0.453 | 0.466 | 0.564 | 0.442 | 0.698 | 0.801 | 0.545 | 0.971 | 0.947 | 0.419 | 1.47 | 1.14 | 0.883
KQQEIYQELTQ [CD209_Y239] | 5.8 | 1.07 | 6.33 | 6.43 | 3.03 | 5.59 | 4.81 | 2.3 | 0.917 | 3.56 | 1.35 | 1.77 | 3.1 | 1.14 | 0.673 | 0.585
GRPMDYQVSIT [OTOF_Y254] | 0.517 | 0.775 | 0.403 | 0.417 | 0.624 | 0.449 | 0.416 | 0.51 | 0.727 | 0.508 | 0.812 | 0.662 | 0.473 | 0.767 | 0.656 | 0.456
FEEDSYSHIMA [FDPS_Y388_YF] | 0.551 | 1.23 | 0.634 | 0.972 | 0.593 | 0.721 | 0.458 | 1.01 | 1.06 | 1.07 | 1.33 | 0.671 | 1.01 | 0.718 | 0.479 | 0.864
NIKKEYAKMVQ [PMS2_Y181] | 0.345 | 0.615 | 0.335 | 0.451 | 0.413 | 0.312 | 0.392 | 0.39 | 0.436 | 0.294 | 0.549 | 0.422 | 0.358 | 0.824 | 0.791 | 0.623
MEVGQYIFVKC [CYBB_Y324] | 0.835 | 1.53 | 0.599 | 0.582 | 0.723 | 0.463 | 0.511 | 2.43 | 1.53 | 0.708 | 1.74 | 1.01 | 2.8 | 0.781 | 0.651 | 0.539
EVVGRYSLHNA [MLH1_Y183_V185L] | 0.421 | 0.671 | 0.382 | 0.411 | 0.368 | 0.364 | 0.405 | 0.424 | 0.445 | 0.33 | 0.478 | 0.371 | 0.502 | 0.802 | 0.767 | 0.488
VMICAYLLHRG [PTEN_Y138] | 0.612 | 1.68 | 0.478 | 0.558 | 0.63 | 0.644 | 0.482 | 0.778 | 1.36 | 0.688 | 1.21 | 1.27 | 0.642 | 1.05 | 0.714 | 0.723
TLLAFYMGNFS [GLB1_Y552_P549L] | 0.943 | 1.49 | 0.408 | 0.62 | 0.661 | 0.98 | 0.625 | 0.839 | 1.59 | 0.559 | 1.18 | 1.06 | 0.435 | 0.835 | 0.805 | 0.464
RALLNYIASKY [GSTA3_Y74_I71L] | 0.551 | 0.959 | 0.678 | 0.553 | 0.521 | 0.381 | 0.509 | 0.798 | 0.8 | 0.47 | 0.611 | 0.578 | 0.343 | 1.22 | 0.917 | 0.768
RFLRGYRQHAF [HLA-A_Y137_D140H_YF] | 0.64 | 1.34 | 0.648 | 0.581 | 0.599 | 0.805 | 0.706 | 0.701 | 0.933 | 0.598 | 0.606 | 1.02 | 0.564 | 0.636 | 0.284 | 0.495
SLLLSYYLIKW [NUP160_Y773_P768S] | 0.673 | 1.24 | 0.456 | 0.499 | 0.539 | 0.587 | 0.649 | 2.09 | 2.23 | 0.47 | 1.12 | 0.882 | 2.51 | 1.27 | 1.01 | 0.925
EDGFAYVPLKD [PRIM2_Y208] | 0.567 | 1.27 | 0.479 | 0.519 | 0.649 | 0.523 | 0.42 | 0.759 | 1.18 | 0.492 | 1.25 | 0.86 | 0.501 | 0.992 | 0.563 | 0.55
IEEGTYGVVFR [CDK11B_Y449_YF] | 2.76 | 1.48 | 8.86 | 7.46 | 7.66 | 5.94 | 3.13 | 0.961 | 1.38 | 6.28 | 1.41 | 1.2 | 0.548 | 0.722 | 0.467 | 0.349

Sequence | phosphorylation enrichment (EPHB1) | phosphorylation enrichment (Fes) | phosphorylation enrichment (Fyn) | phosphorylation enrichment (Hck) | phosphorylation enrichment (EPHB2) | phosphorylation enrichment (c-Src) | phosphorylation enrichment (MERTK) | phosphorylation enrichment (FGFR3) | phosphorylation enrichment (Jak2) | phosphorylation enrichment (Fer (mouse)) | phosphorylation enrichment (AncSZ) | phosphorylation enrichment (c-Abl (mouse)) | phosphorylation enrichment (FGFR1) | SH2 binding enrichment (Grb2 SH2) | SH2 binding enrichment (SHP2-C SH2) | SH2 binding enrichment (c-Src SH2)
FADGVYLALEE [DUOX2_Y70_Q71L_YF] | 1.19 | 1.04 | 2.15 | 1.51 | 0.991 | 2.47 | 0.641 | 1.02 | 0.968 | 0.584 | 1.63 | 0.647 | 0.881 | 0.849 | 0.623 | 0.558
TVEDHDYEGGI [TKT_Y563_Y563D] | 0.543 | 1.17 | 0.478 | 0.5 | 0.583 | 0.526 | 0.49 | 0.727 | 0.963 | 0.559 | 1.08 | 0.654 | 0.481 | 1.15 | 1.26 | 0.651
RSSPVYVGRVV [TGM2_Y219] | 0.59 | 1.03 | 1.42 | 2.22 | 0.796 | 1.42 | 0.818 | 0.82 | 1.03 | 0.945 | 1.18 | 1.71 | 0.77 | 1.13 | 1.39 | 0.758
QSQQAYQEAFE [YWHAZ_Y149] | 0.355 | 1.22 | 0.397 | 0.48 | 0.47 | 0.578 | 0.541 | 0.693 | 1.28 | 0.597 | 1.3 | 1.71 | 0.488 | 0.873 | 0.526 | 1.32
ECKEAYHEGEC [PRKN_Y372] | 0.524 | 1.26 | 0.48 | 0.654 | 0.638 | 0.541 | 0.456 | 0.652 | 1.18 | 0.498 | 1.32 | 0.761 | 0.626 | 0.82 | 0.577 | 0.646
SAASSYSFSDL [EMD_Y59] | 0.508 | 0.951 | 0.477 | 0.468 | 0.47 | 0.455 | 0.498 | 0.666 | 0.874 | 0.478 | 0.839 | 0.753 | 0.434 | 0.846 | 0.598 | 0.544
GDYYRYLAEVA [YWHAG_Y133] | 3.59 | 1.01 | 1.39 | 1.31 | 3.79 | 1.93 | 2.63 | 9.01 | 5.81 | 0.476 | 2.37 | 1.09 | 11.5 | 1.02 | 0.905 | 0.569
HSQEDYFECFQ [ZIM2_Y411] | 2.03 | 1.82 | 0.669 | 0.623 | 1.2 | 0.79 | 0.624 | 8.51 | 1.25 | 0.614 | 3.08 | 0.902 | 10.2 | 0.639 | 0.6 | 0.531
RFLRGYQQDAY [HLA-A_Y137_R138Q] | 0.519 | 0.81 | 0.349 | 0.404 | 0.535 | 0.715 | 0.665 | 0.633 | 0.803 | 0.64 | 0.894 | 0.843 | 0.548 | 0.631 | 0.713 | 0.43
IFGEEYEEQPR [ZMYM2_Y1033_V1028I] | 0.663 | 1.28 | 0.535 | 0.608 | 0.647 | 0.591 | 0.451 | 0.849 | 1.16 | 0.721 | 1.47 | 0.662 | 0.611 | 0.819 | 0.77 | 0.561
LIPIKYKAMKK [MYD88_Y257] | 0.55 | 0.96 | 0.489 | 0.342 | 0.384 | 0.302 | 0.413 | 0.92 | 0.297 | 0.405 | 0.388 | 0.325 | 0.755 | 0.908 | 0.974 | 0.602
KDFNKYVAYIE [KDM4B_Y31] | 0.461 | 0.767 | 0.365 | 0.485 | 0.449 | 0.364 | 0.379 | 0.53 | 0.603 | 0.359 | 0.718 | 0.483 | 0.375 | 0.83 | 1.14 | 0.927
MHDSNYVSKGS [PDGFRA_Y849] | 0.388 | 0.73 | 0.535 | 0.554 | 0.416 | 0.482 | 0.451 | 0.459 | 0.55 | 0.393 | 0.648 | 0.508 | 0.501 | 0.739 | 0.546 | 0.404
GGSSPYSRRLA [CDK13_Y351_P356A] | 0.363 | 0.565 | 0.426 | 0.425 | 0.326 | 0.468 | 0.443 | 0.395 | 0.512 | 0.344 | 0.626 | 0.567 | 0.356 | 0.875 | 1.11 | 0.617
TYGVVYRAKDK [CDK11B_Y453] | 0.75 | 1.16 | 11.6 | 9.58 | 0.59 | 8.45 | 1.31 | 0.42 | 0.525 | 0.733 | 0.595 | 0.531 | 0.583 | 1.11 | 0.718 | 0.491
ETRWNYHFEVV [GCNT3_Y267_K266N] | 0.971 | 1.65 | 0.449 | 0.439 | 0.496 | 0.433 | 0.398 | 0.893 | 1.23 | 0.568 | 1.38 | 0.904 | 0.563 | 0.761 | 0.646 | 0.592
